The results in this text go back to PMC2954370.

The assay concerns the target HIV-1 Env gp140 of isolate JRFL (HIV-1 isolate JRFL (clade B)) (UniProt Q75760). Description: ELISA.

Substance “human soluble CD4 (first two domains of the human CD4) (from UniProt P01730 26-203) (domain or fragment)” yielded an EC50 of 6 nM.
